Reference: patent US20250057950A1 (ORICELL THERAPEUTICS, published 2025)
One block for each binder: values may come before it.

Experiments:
[1] = biological target: T1, N-terminal peptide of human GPRC5D (1-27), biotin-labelled (human, labeled with biotin (EZ-Link Sulfo-NHS-LC-Biotin)); assay: BLI (Octet RED384), biotinylated peptide on SA sensor, antibody in solution
T1 construct: Immobilised on an SA sensor at 20 nM; also called N-terminal peptide (Biotin) of GPRC5D
T1 peptide: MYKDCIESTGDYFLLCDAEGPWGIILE
Source text: (§1) The G5VHH1 and G5VHH2 antibody sequences were cloned into an eukaryotic vector containing p3.4-hIgG1Fc of a human IgG1 Fc fragment (hIgG1Fc) sequence, facilitating the recombinant expression of GPRC5D VHH-hIgG1Fc to give a recombinant protein which was then purified to determine the affinity of G5VHH1-hIgG1Fc and G5VHH2-hIgG1Fc to the affinity N-terminal peptide (Biotin) of GPRC5D. Briefly, the N-terminal peptide of human GPRC5D (>sp|Q9NZD1|1-27: […]) protein was labeled with biotin (EZ-Link Sulfo-NHS-LC-Biotin, Pierce, 21327). By the biolayer interferometry (BLI) technique, the binding kinetics between antigen and antibody was analyzed using the molecular interaction analyzer fortebiooctetRED384 (PALL) (wherein both antigen and antibody were diluted with a PBS buffer containing 0.1% BSA and 0.02% Tween 20). The biotin-conjugated antigen with a concentration of 20 nM was immobilized to an SA sensor, and bound for 3 min; then bound with double-diluted antibody solution (G5VHH1 and G5VHH2 antibodies) for 5 min; and finally dissociated for 5 min. The obtained results were analyzed by Octet Data Analysis 9.0 software (fortebio) to calculate the binding strength between the antigen and the antibody, thereby giving the KD value, Ka (1/Ms) value and Kd (1/s) value. […]

[2] = biological target: T2, human G protein-coupled receptor class C group 5 member D (GPRC5D) protein (human, UniProt Q9NZD1 1-345); assay: flow cytometry on GPRC5D-CHO cells, anti-human IgG Fc secondary antibody
T2 construct: whole, on cells; The same protein on several cell lines; also called HuGPRC5D; CHO-GPRC5D
T2 sequence (Q9NZD1 whole entry): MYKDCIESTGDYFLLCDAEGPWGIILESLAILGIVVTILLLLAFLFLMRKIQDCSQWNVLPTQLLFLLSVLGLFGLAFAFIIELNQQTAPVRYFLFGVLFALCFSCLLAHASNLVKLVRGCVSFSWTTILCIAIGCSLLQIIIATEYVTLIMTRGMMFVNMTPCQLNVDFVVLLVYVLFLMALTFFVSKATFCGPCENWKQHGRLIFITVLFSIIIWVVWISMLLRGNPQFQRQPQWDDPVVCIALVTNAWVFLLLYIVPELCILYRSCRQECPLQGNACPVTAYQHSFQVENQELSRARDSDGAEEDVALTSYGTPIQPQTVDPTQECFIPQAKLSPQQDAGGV
Description: CHO-GPRC5D target cells were formulated with PBS buffer to a concentration of 1×10⁶ cells/mL, and added into a 96-well sharp-bottom plate (corning 3894) with 30 μL in each well. The antibodies to be detected, G5VHH1-hIgG1Fc and G5VHH2-hIgG1Fc were formulated with PBS buffer to a concentration of 30 μg/mL, and subject to 3-fold dilution to form a gradient of 8 concentrations (with the minimum concentration of 0). The formulated antibodies with different concentrations were mixed well with the plated target cells at 30 μL/well, and incubated in a refrigerator at 4° C. for 1 hr. 150 μL of buffer was added into each well, and centrifuged at 300 g for 5 min. The supernatant was then discarded, and the cells were additionally washed once. Goat-anti-human IgG (Fc-specific, ab98593) fluorescent secondary antibody was formulated with buffer at a ratio of 1:200, added into each well in an amount of 30 μl and mixed with the cells uniformly, and incubated in the refrigerator at 4° C. for 30 min. 170 μL of buffer was added to each well, and centrifuged at 300 g for 5 min. The supernatant was then discarded and the cells were additionally washed once. 35 μL of buffer was added into each well, mixed well, and the mixture was detected by iQue Screener Flow Cytometer (available from IntelliCyt Company). […]

[3] = biological target: T2, human G protein-coupled receptor class …; assay: flow cytometry (FACS) on CHO-GPRC5D cells
[4] = biological target: T2, human G protein-coupled receptor class …; assay: flow cytometry (FACS) on K562-GPRC5D cells
[5] = biological target: T2, human G protein-coupled receptor class …; assay: flow cytometry (FACS) on MM1S myeloma cells
Description: The target cells (i.e., MM1S myeloma cells) were formulated with buffer to a concentration of 1×10⁶ cells/mL, and added into a 96-well sharp-bottom plate (corning 3894) with 30 μL in each well. The antibody to be detected was formulated with buffer to a concentration of 10 μg/mL, and subject to 3-fold dilution to form a gradient of 8 concentrations. The formulated antibodies of different concentrations were mixed well with the plated target cells at 30 μL/well, and incubated in a refrigerator at 4° C. for 1 hr. 150 μL of buffer was added into each well, and centrifuged at 300 g for 5 min. The supernatant was discarded, and then the cells were loosened up by shaking, and additionally washed once. The fluorescent secondary antibody (ab98593) was formulated with buffer at a ratio of 1:200, added into each well in an amount of 30 μl and mixed with the cells uniformly, and incubated in the refrigerator at 4° C. for 30 min. 150 μL of buffer was added to each well, and centrifuged at 300 g for 5 min. The supernatant was discarded, and then the cells were loosened up by shaking, and additionally washed once. 35 μL of buffer was added into each well, mixed well, and the mixture was measured by a flow cytometer. Of those, ET150-5scFv is a positive control antibody with the sequence found in the patent application CN107428829A, 3B5VHH has an amino acid sequence as set forth in SEQ ID NO: 15, 3E7VHH has an amino acid sequence as set forth in SEQ ID NO: 19, 4A2VHH has an amino acid sequence as set forth in SEQ ID NO: 24, and 4B3VHH has an amino acid sequence as set forth in SEQ ID NO: 30.

[6] = biological target: T1, N-terminal peptide of human GPRC5D …; assay: BLI (Octet RED384), biotinylated peptide on SA sensor; fit R2 0.7914, model called not credible
Source text: as §1

[7] = biological target: human G protein-coupled receptor class C group 5 member D (GPRC5D) protein (human) (UniProt Q9NZD1); assay: flow cytometry (FACS) on CHO-GPRC5D cells
[8] = biological target: human G protein-coupled receptor class C group 5 member D (GPRC5D) protein (human) (UniProt Q9NZD1); assay: flow cytometry (FACS) on K562-GPRC5D cells
[9] = biological target: human G protein-coupled receptor class C group 5 member D (GPRC5D) protein (human) (UniProt Q9NZD1); assay: flow cytometry (FACS) on MM1S myeloma cells

Kd [1]: 76.9 nM | EC50 (read off the curve) [2]: ~0.4 µg/mL
B1: G5VHH2-hIgG1Fc (Fc fusion)
chain: EVQLVESGGGLVQPGGSLRLSCAASGLIFSRYVMGWFRQAPGKGRELVAFINSSGGSTNYPDSVEGRFTISRDNAKRMVYLQMNSLRAEDTAVYYCAASSRTSTTRGYNYWGQGTQVTVSS
notes: also called G5VHH2 antibody; not shown: human IgG1 Fc fragment (hIgG1Fc) of vector p3.4-hIgG1Fc

EC50 [3]: 0.18 µg/mL | EC50 [4]: 0.216 µg/mL | EC50 [5]: 0.658 µg/mL
B2: 4B3 VHH (VHH)
VHH: B1 chain
notes: also called G5VHH2

EC50 [3]: 0.0687 µg/mL | EC50 [4]: 0.164 µg/mL | EC50 [5]: 0.0195 µg/mL
B3: 4A2 VHH (VHH)
VHH: EVQLVESGGGLVQPGGSLRLSCAASGFIFSRYDMGWFRQAPGKGRELVAVITWGGGSTYYPDSVEGRFTISRDNAKRMVYLQMNSLRAEDTAVYYCAARSASAYRTGRLEYNYWGQGTQVTVSS

EC50 (read off the curve) [2]: ~1 µg/mL | binding result [6]: no binding
B4: G5VHH1-hIgG1Fc (Fc fusion)
chain: EVQLVESGGGLVQPGGSLRLSCAASGRIFSRDAMGWFRQAPGKGRELVAAINSSGGNTYYPDSVEGRFTISRDNAKRMVYLQMNSLRAEDTAVYYCAARGVRWTSTTAYGYNYWGQGTQVTVSS
notes: also called G5VHH1 antibody; not shown: human IgG1 Fc fragment (hIgG1Fc) of vector p3.4-hIgG1Fc

EC50 [3]: 0.426 µg/mL | EC50 [4]: 0.576 µg/mL | EC50 [5]: 0.286 µg/mL
B5: 3E7 VHH (VHH)
VHH: B4 chain
notes: also called G5VHH1

EC50 [7]: 0.249 µg/mL | EC50 [8]: 0.431 µg/mL | EC50 [9]: 0.911 µg/mL
B6: ET150-5 scFv (scFv, from another filing)
scFv: QSVLTQPPSASGTPGQRVTISCSGSRSNVGGNYVFWYQQVPGATPKLLIYRSNQRPSGVPDRFAGSKSGSSASLAISGLRSEDEADYYCATWDDSLSGFVFGTGTKVTVLGSRGGGGSGGGGSGGGGSLEMAEVQLVESGGGLVKPGGSLRLSCAASGFTFSDYYMSWIRQAPGKGLEWVSYISSSGSTIYYADSVKGRFTISRDNAKNSLYLQMNSLRAEDTAVYYCARGYGKAYDQWGQGTLVTVSS

EC50 [3]: 0.103 µg/mL | EC50 [4]: 0.207 µg/mL | EC50 [5]: 0.0439 µg/mL
B7: 3B5 VHH (VHH)
VHH: EVQLVESGGGLVQPGGSLRLSCAASGFIFSRYGMGWFRQAPGKGRELVAAINWSDGTTYYPDSVEGRFTISRDNAKRMVYLQMNSLRAEDTAVYYCAADRRLRSQTGYDYWGQGTQVTVSS
notes: From the synthetic nanobody library NanoOri_1.0 (Caplacizumab backbone)
